Results from article doi:10.1101/2022.05.12.491222.
Values belong to the substance of their own block, whether it stands above or below them.

Tests used:
[1] = target: LARGE2ΔTM (UniProt Q8N3Y3); assay: SAXS
[2] = target: LARGE2ΔTM (UniProt Q8N3Y3); assay: SEC-MALS
[3] = target: LARGE1ΔTM (UniProt O95461); assay: SAXS
[4] = target: LARGE1ΔTM (UniProt O95461); assay: SEC-MALS
[5] = target: LARGE2ΔTM treated with PNGase F (UniProt Q8N3Y3); assay: SEC-MALS
[6] = target: LARGE1ΔTM treated with PNGase F (UniProt O95461); assay: SEC-MALS

stoichiometry N [1]: 2
stoichiometry N [2]: 2
Substance: LARGE2ΔTM (from UniProt Q8N3Y3 1-721) (enzyme)

stoichiometry N [3]: 2
stoichiometry N [4]: 2
Substance: LARGE1ΔTM (from UniProt O95461 34-756) (enzyme)

stoichiometry N [5]: 2
Substance: LARGE2ΔTM treated with PNGase F (from UniProt Q8N3Y3 1-721) (enzyme)

stoichiometry N [6]: 2
Substance: LARGE1ΔTM treated with PNGase F (from UniProt O95461 34-756) (enzyme)
